Drawing on publication PMC10850787, this text covers stoichiometry N for two substances.

In assay [1] the target is PaFtsH1-6xHis (FtsH1 of Pseudomonas aeruginosa SG17M clone C) (Pseudomonas aeruginosa SG17M). Nature of the assay: SEC; analytical Superdex 200 (increase) 3.2/3.0 gel filtration column in Buffer PD (50 mM Tris-HCl pH 8.0, 80 mM NaCl, 10% glycerol, 2 mM beta-mercaptoethanol, 0.1% NP-40); native mass from molecular weight standards; hexamer plus NP-40 micelles.
The target is the same in assay [2]. Nature of the assay: negative-stain electron microscopy; detergent-solubilised enzyme at 0.4 mg/ml in storage buffer with 0.1% Igepal, 2% uranyl acetate; 3D reconstruction with C6 symmetry, about 22 A.
Assay [3] deals with PaFtsH2-6xHis (FtsH2 of Pseudomonas aeruginosa SG17M clone C, tLST genomic island) (Pseudomonas aeruginosa SG17M). Nature of the assay: SEC; analytical Superdex 200 (increase) 3.2/3.0 gel filtration column in Buffer PD (50 mM Tris-HCl pH 8.0, 80 mM NaCl, 10% glycerol, 2 mM beta-mercaptoethanol, 0.1% NP-40); native mass from molecular weight standards; hexamer plus NP-40 micelles. (In general: Size exclusion chromatography separates by hydrodynamic size, large species first.)

Assay [4] shares this target. Nature of the assay: negative-stain electron microscopy; detergent-solubilised enzyme at 0.4 mg/ml in storage buffer with 0.1% Igepal, 2% uranyl acetate; 3D reconstruction with C6 symmetry, about 22 A.

For orientation: stoichiometry N means the number of molecules, sites or subunits per partner or assembly. For the substance “PaFtsH1-6xHis (FtsH1 of Pseudomonas aeruginosa SG17M clone C) (enzyme)”, the stoichiometry N in assay [1] and in assay [2] was 6 throughout.

Turning to “PaFtsH2-6xHis (FtsH2 of Pseudomonas aeruginosa SG17M clone C, tLST genomic island) (enzyme)”, the stoichiometry N in assay [3] and in assay [4] was 6 each time.
